Series [1] can be described thus: Thermostability assay: residual OTA detoxification activity after 10 min incubation at 45-99° C. (T50). The conditions noted are these: 0.1 mg/mL protein in 20 mM Tris-HCl pH 7.5, residual OTA detoxification activity relative to 4° C. reference aliquot. It is filed as physicochemical. The method in brief: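 T50 marks the temperature range at which half the starting OTA-detoxifying activity is lost, versus an unheated 4 °C reference. Samples were 0.1 mg/mL purified protein in 20 mM Tris-HCl pH 7.5, exposed for 10 min to 45, 55, 65, 75, 80, 85, 90, 95 or 99 °C.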

Series [2] is described as follows: OTA detoxification activity assay (specific activity, fluorescence reduction ex/em 390/450 nm). Format: biochemical. The settings on record: for Specific OTA detoxification activities in U/g at pH 6.0 / Specific OTA detoxification activities in U/g at pH 7.5: 37° C., 200 ng/mL OTA, 100 mM sodium phosphate buffer; for Specific OTA detoxification activities in % compared to the enzyme of SEQ ID NO: 2, pH 6.0 / Specific OTA detoxification activities in % compared to the enzyme of SEQ ID NO: 2, pH 7.5: SEQ ID NO: 2 = 100%. The method in brief:
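Recombinant enzyme preparation with 200 ng/mL OTA in 100 mM sodium phosphate, at pH 6.0 and pH 7.5, 37° C. Degradation followed as the fall in fluorescence at ex/em 390/450 nm. Specific activity taken from the initial linear slope; one unit degrades 1 μmol OTA per min at a starting OTA of […].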

B1: 1 (protein)
chain: APAAPHTVVLRAARMFDGASGKLVDHPQLTIVGNKIVRIAQGDKAEVPAGAEVVDLGDATLLPGFIDAHVHLSGQSSDNWYGDFFDNMMRFPAEQALYGAYYARITLEAGFTSVRDVGSTDWVALGLRNAIDAGKVPGPRMLVSNYAVGSTGGHADQDPIPPHKLPLAGPLQGVCNGPEECRAAVRYQIKYGANVIKFMPSGGVLSLSDPVDAPELSQDEMNAVIGESHAWGRKVAAHAHGDKAAKMAVAAGVDSIEHGSFIEDDTLRAMKAKNVYLVPTISAIAHVEEKIGTFPPVIAEKGRAAAAHLRQTFRHAVQIGVPIALGTDAGVGAHGSNAREFRYMVENGLTPAQALLAGTANAARLLGTFDRVGTLEAGKLADVVAVPGNPIADITVTERPLFVMKDGVVVRRDAVR
modifications: polypeptide 1
Turning to B1, the “T50 (temperature at which 50% of the initial activity was maintained)” value in series [1] was 65-75 °C. In series [2], the “Specific OTA detoxification activities in U/g at pH 6.0” value was 99.00 U/g and the “Specific OTA detoxification activities in U/g at pH 7.5” value stood at 191.89 U/g.

B2: 369 (protein)
chain: MRTRTRILTASLALLAANAWAADAMPSTPHTVVLRAARMFDGASGKLVEHPQLTIVGNKIVRVAQDDKAAVPAGADVIDLGDATLLPGFIDAHVHLSGQSSDNWYGDFFDNMMRFPAEQALYGAWYARITLEAGFTSVRDVGSTDWIALGLRNAIDAGKVPGPRMLVSNYAIGSTGGHADQDPIPPQKLAPAGPLQGVCNGPDECRAAVRYQIKYGANVIKFMPSGGVLSLSDPVDAPELTQEEMNAVVGEAHAWGRKVAAHAHGDKAAKMAVAAGVDSIEHGSFLEDDTLRMMKAKGVYLVPTISAVMHVEEKIATFPPVIAEKGRAAAAHVRQTFRHAVQIGVPIALGTDAGVGAHGTNAREFRYMVDNGMAPAQALLAGTSNAARLLGTIDRVGTLEAGKLADVVAVPGNPVADITVTERPVFVMKDGVVVRRGAVR
modifications: exemplary polypeptide
On to B2, for which the “T50 (temperature at which 50% of the initial activity was maintained)” value in series [1] worked out at 68 °C. Moreover, in series [2], the “Specific OTA detoxification activities in U/g at pH 6.0” value came to 122.50 U/g and the “Specific OTA detoxification activities in U/g at pH 7.5” value was 159.80 U/g.

B3: 2 (protein)
chain: MYSLAIRNGIVFDGEKFIGKTNIYVDGDKIVKITNERLDAKEEVNAEGYFVMPGLIDAHLHLTGIRGGSLLMGYLLDDPRTRLLRAANWARELLMAGFTTVRDCGEPNSIILRNAINEGIIPGPRIIAAGSPITQTFGHAELSHSLPLEWSIQLGFGEICDGVDECIKAARKVLRSGADFIKIMATGGVLSERDRPEWPQLTPEEMSAIVREAEKVGTYVAAHAHGDKGARIAVEAGVRTIEHGSLITEETVKLMAEKGVSLTPTLSIQELIYKYGKQMGIDPWGLEKIGQVREGVINSIKLARKYGVMILAGTDLGFKTGLDIDMGKNWVEVKLLVELGGLSSEEALRAATGNASKMLRLNTGIIREGYLADIVLINGNPLENINDIARVSTVIKGGKVTVENGKLI
modifications: polypeptide 2
Turning to B3, the “T50 (temperature at which 50% of the initial activity was maintained)” value in series [1] is greater than 95 °C. Moreover, in series [2], the “Specific OTA detoxification activities in U/g at pH 6.0” value is 0.61 U/g and the “Specific OTA detoxification activities in U/g at pH 7.5” value was 0.73 U/g.

B4: 40 (protein)
chain: MYSLAIRNGIVFDGEKFIGKTNIYVDGDKIVKITNERLDAKEEVNAEGYFVMPGLIDAHLHLTGIRGGSLLMGYLLDDPRTRLLRAANWARELLMAGFTTVRDCGEPNSIILRNAINEGIIPGPRIIAAGSPITQTFGHAELSHSLPLEWSIQLGFGEICDGVDECIKAARKVLRSGADFIKIMATGGVLSERDRPEWPQLTPEEMSAIVREAEKVGTYVAAHAHGDKGARIAVEAGVRTIEHGSLITEETVKLMAEKGVSLTPTLSIIELIYKYGKQMGIDPWGLEKIGQVREGVINSIKLARKYGVMILAGTDLGFKTGLDIDMGKNWVEVKLLVELGGLSSEEALRAATGNASKMLRLNTGIIREGYLADIVLINGNPLENINDIARVSTVIKGGKVTVENGKLI
modifications: exemplary polypeptide
As to B4, the “T50 (temperature at which 50% of the initial activity was maintained)” value in series [1] is greater than 99 °C. Further, in series [2], the “Specific OTA detoxification activities in % compared to the enzyme of SEQ ID NO: 2, pH 6.0” value came out at 15.00% and the “Specific OTA detoxification activities in % compared to the enzyme of SEQ ID NO: 2, pH 7.5” value is 61.00%.

B5: 42 (protein)
chain: MYSLAIRNGIVFDGEKFIGKTNIYVDGDKIVKITNERLDAKEEVNAEGYFVMPGLIDAHLHLTGIRGGSLLMGYLLDDPRTRLLRAANWARELLMAGFTTVRDCGEPNSIILRNAINEGIIPGPRIIAAGSPITQTFGHAELSHSLPLEWSIQLGFGEICDGVDECIKAARKVLRSGADFIKIMATGGVLSERDRPEWPQLTPEEMSAIVREAEKVGTYVAAHAHGDKGARIAVEAGVRTIEHGSLITEETVKLMAEKGVSLTPTLSIQELIYKYGKQMGIDPWGLEKIGQVREGVINSIKLARKYGVMILAGTDLGVKTGLDIDMGKNWVEVKLLVELGGLSSEEALRAATGNASKMLRLNTGIIREGYLADIVLINGNPLENINDIARVSTVIKGGKVTVENGKLI
modifications: exemplary polypeptide
Consider B5, for which the “T50 (temperature at which 50% of the initial activity was maintained)” value in series [1] is greater than 99 °C. In series [2], the “Specific OTA detoxification activities in % compared to the enzyme of SEQ ID NO: 2, pH 6.0” value was determined as 131.00% and the “Specific OTA detoxification activities in % compared to the enzyme of SEQ ID NO: 2, pH 7.5” value was determined as 595.00%.

B6: 41 (protein)
chain: MYSLAIRNGIVFDGEKFIGKTNIYVDGDKIVKITNERLDAKEEVNAEGYFVMPGLIDAHLHLTGIRGGSLLMGYLLDDPRTRLLRAANWARELLMAGFTTVRDCGEPNSIILRNAINEGIIPGPRIIAAGSPITQTFGHAELSHSLPLEWSIQLGFGEICDGVDECIKAARKVLRSGADFIKIMATGGVLSERDRPEWPQLTPEEMSAIVREAEKVGTYVAAHAHGDKGARIAVEAGVRTIEHGSLITEETVKLMAEKGVSLTPTLSIQELIYKVGKQMGIDPWGLEKIGQVREGVINSIKLARKYGVMILAGTDLGFKTGLDIDMGKNWVEVKLLVELGGLSSEEALRAATGNASKMLRLNTGIIREGYLADIVLINGNPLENINDIARVSTVIKGGKVTVENGKLI
modifications: exemplary polypeptide
Consider B6, for which the “T50 (temperature at which 50% of the initial activity was maintained)” value in series [1] came to 99 °C. Besides, in series [2], the “Specific OTA detoxification activities in % compared to the enzyme of SEQ ID NO: 2, pH 6.0” value was found to be 272.00% and the “Specific OTA detoxification activities in % compared to the enzyme of SEQ ID NO: 2, pH 7.5” value is on record as 1551.00%.

B7: 39 (protein)
chain: MYSLAIRNGIVFDGEKFIGKTNIYVDGDKIVKITNERLDAKEEVNAEGYFVMPGLIDAHLHLTGIRGGSLLMGYLLDDPRTRLLRAANWARELLMAGFTTVRDCGEPNSIILRNAINEGIIPGPRIIAAGSPITQTFGHAELSHSLPLEWSIQLGFGEICDGVDECIKAARKVLRSGADFIKIMATGGVLSERDRPEWPQLTPEEMSAIVREAEKVGTYVAAHAHGDKGARIAVEAGVRTIEHGSLITEETVKLMAEKGVSLTPTLSAQELIYKYGKQMGIDPWGLEKIGQVREGVINSIKLARKYGVMILAGTDLGFKTGLDIDMGKNWVEVKLLVELGGLSSEEALRAATGNASKMLRLNTGIIREGYLADIVLINGNPLENINDIARVSTVIKGGKVTVENGKLI
modifications: exemplary polypeptide
Turning to B7, in series [1], the “T50 (temperature at which 50% of the initial activity was maintained)” value is greater than 99 °C. For the same molecule, in series [2], the “Specific OTA detoxification activities in % compared to the enzyme of SEQ ID NO: 2, pH 6.0” value is given as 8.00% and the “Specific OTA detoxification activities in % compared to the enzyme of SEQ ID NO: 2, pH 7.5” value was determined as 15.00%.

B8: 17 (protein)
chain: MTTRLRILTASLALLAANACAADAAPSTPHTVVLRAARMFDGASGKIVEHPQLTIVGNKIVRIAQGKEEDNRTGIPAGADVIDLGDATLLPGFIDAHVHLSGQSSDNWYGDFFDNMMRFPAEQALYGAYYARITLEAGFTSVRDVGSTDWIALGLRNAIDAGKVPGPRMLVSNYAVGSTGGHADQDPIPPQKLAPAGPLQGVCNGPEECRAAVRYQIKYGANVIKFMPSGGVLSLSDPVDAPELSQDEMNAVIGEAHAWGRKVAAHAHGDKAAKMAVTAGVDSIEHGSFLEDDTLRMMKAKGVYLVPTISAIAHVEEKIATFPSVIAEKGRAAASHSRQMFRHAVQIGVPIALGTDAGVGAHGTNAREFRYMVDNGLTPAQSLMAGTANAARLLGTFDRVGTLEAGKLADVVAVPGNPIADITVTERPVFVMKDGVVVRRGAVR
modifications: polypeptide 3
Take B8: in series [1], the “T50 (temperature at which 50% of the initial activity was maintained)” value was 65-75 °C. Also, in series [2], the “Specific OTA detoxification activities in U/g at pH 6.0” value was determined as 11.65 U/g and the “Specific OTA detoxification activities in U/g at pH 7.5” value came to 28.44 U/g.

B9: 18 (protein)
chain: MPPMRTRTRILTASLALLAANAWAADAMPSTPHTVVLRAARMFDGASGKLVEHPQLTIVGNKIVRVAQDDKAAVPAGADVIDLGDATLLPGFIDAHVHLSGQSSDNWYGDFFDNMMRFPAEQALYGAWYARITLEAGFTSVRDVGSTDWIALGLRNAIDAGKVPGPRMLVSNYAIGSTGGHADQDPIPPQKLAPAGPLQGVCNGPDECRAAVRYQIKYGANVIKFMPSGGVLSLSDPVDAPELTQEEMNAVVGEAHAWGRKVAAHAHGDKAAKMAVAAGVDSIEHGSFLEDDTLRMMKAKGVYLVPTISAVMHVEEKIATFPPVIAEKGRAAAAHVRQTFRHAVQIGVPIALGTDAGVGAHGTNAREFRYMVDNGMAPAQALLAGTSNAARLLGTIDRVGTLEAGKLADVVAVPGNPVADITVTERPVFVMKDGVVVRRGAVR
modifications: polypeptide 4
B9: the “T50 (temperature at which 50% of the initial activity was maintained)” value in series [1] was 81-83 °C. In series [2], the “Specific OTA detoxification activities in U/g at pH 6.0” value worked out at 39.30 U/g and the “Specific OTA detoxification activities in U/g at pH 7.5” value is listed as 147.14 U/g.

(Values after patent US20240352438A1, “MEANS AND METHODS FOR DETOXIFYING OCHRATOXIN A” (DSM Austria GmbH, priority 2021, published 2024).)
